Data published in the supplement of paper PMC9112550, “Optimization of the antimicrobial peptide Bac7 by deep mutational scanning” (BMC Biology, 2022).

System: Escherichia coli TOP10
Test: shrunken log2 fold change of peptide-encoding DNA abundance (4.5 h post-induction vs induction); higher = less antimicrobial activity (less host growth inhibition)
Settings: time post-induction: 4.5 h; library: site-saturation at positions 5, 18, 19, 20
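Note: peptides expressed intracellularly from a pBAD plasmid library in pooled LB shake-flask culture, induced with 0.3% L-arabinose, DNA abundance read by NGS, three biological replicates, DESeq2 with apeglm shrinkage.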

Row | Sequence | shrunken log2 fold change
1 | RRIRQRPPRLPRPRPRPYVFPRP | -0.648
2 | RRIRERPPRLPRPRPRPCFTPRP | -0.453
3 | RRIRWRPPRLPRPRPRPGNPPRP | -0.139
4 | RRIRMRPPRLPRPRPRPYIIPRP | -0.151
5 | RRIRLRPPRLPRPRPRPSASPRP | 0.0218
6 | RRIRQRPPRLPRPRPRPCNKPRP | 0.0281
7 | RRIRQRPPRLPRPRPRPCYFPRP | -0.734
8 | RRIRLRPPRLPRPRPRPSMCPRP | -0.196
9 | RRIRDRPPRLPRPRPRPNCRPRP | 0.0111
10 | RRIRYRPPRLPRPRPRPCKNPRP | -1.05
11 | RRIRRRPPRLPRPRPRPKEDPRP | 0.196
12 | RRIRIRPPRLPRPRPRPDACPRP | 0.183
13 | RRIRPRPPRLPRPRPRPAEKPRP | 0.0387
14 | RRIRLRPPRLPRPRPRPRLSPRP | 0.346
15 | RRIRARPPRLPRPRPRPDTVPRP | -0.125
16 | RRIRLRPPRLPRPRPRPGKIPRP | -0.125
17 | RRIRVRPPRLPRPRPRPGMIPRP | -0.2
18 | RRIRHRPPRLPRPRPRPSTAPRP | -0.24
19 | RRIRKRPPRLPRPRPRPPWIPRP | -0.0983
20 | RRIRPRPPRLPRPRPRPLIEPRP | -0.0879
21 | RRIRRRPPRLPRPRPRPSCIPRP | -0.596
22 | RRIRNRPPRLPRPRPRPHDHPRP | 0.171
23 | RRIRWRPPRLPRPRPRPWTMPRP | -0.146
24 | RRIRMRPPRLPRPRPRPQSVPRP | 0.0409
25 | RRIRFRPPRLPRPRPRPGDVPRP | -0.014
26 | RRIRRRPPRLPRPRPRPKREPRP | 0.304
27 | RRIRGRPPRLPRPRPRPQNKPRP | 0.0435
28 | RRIRRRPPRLPRPRPRPVSTPRP | -0.134

Row | Sequence | shrunken log2 fold change
29 | RRIRFRPPRLPRPRPRPYLVPRP | -0.423
30 | RRIRDRPPRLPRPRPRPGYWPRP | 0.242
31 | RRIRERPPRLPRPRPRPMWEPRP | 0.169
32 | RRIRFRPPRLPRPRPRPELEPRP | 0.537
33 | RRIRQRPPRLPRPRPRPVGSPRP | 0.317
34 | RRIRLRPPRLPRPRPRPQAHPRP | -0.217
35 | RRIRSRPPRLPRPRPRPAQPPRP | 0.181
36 | RRIRARPPRLPRPRPRPLPPPRP | 0.805
37 | RRIRTRPPRLPRPRPRPNRYPRP | -0.19
38 | RRIRDRPPRLPRPRPRPRYQPRP | 0.204
39 | RRIRARPPRLPRPRPRPFQDPRP | -0.297
40 | RRIRDRPPRLPRPRPRPMPLPRP | -0.0224
41 | RRIRQRPPRLPRPRPRPIIHPRP | -0.054
42 | RRIRMRPPRLPRPRPRPMGTPRP | 0.301
43 | RRIRSRPPRLPRPRPRPKGTPRP | -0.237
44 | RRIRTRPPRLPRPRPRPMMAPRP | 0.0689
45 | RRIRCRPPRLPRPRPRPWHKPRP | -0.256
46 | RRIRFRPPRLPRPRPRPRNHPRP | -0.132
47 | RRIRLRPPRLPRPRPRPLRIPRP | -0.031
48 | RRIRLRPPRLPRPRPRPIAPPRP | 0.372
49 | RRIRCRPPRLPRPRPRPTEDPRP | -0.0639
50 | RRIRDRPPRLPRPRPRPMRAPRP | 0.953
51 | RRIRQRPPRLPRPRPRPCADPRP | -0.116
52 | RRIRSRPPRLPRPRPRPQIDPRP | -0.0914
53 | RRIRERPPRLPRPRPRPVKMPRP | -0.0989
54 | RRIRHRPPRLPRPRPRPGTHPRP | 0.0646
55 | RRIRERPPRLPRPRPRPYNLPRP | -0.321
